Where a chain is given by its changes, count along the chain named. In names and notes the source's numbering stands.
B1: anti-CD20 human IgG1 L234K/L235E/G236R (antibody)
heavy: QVQLQQPGAELVKPGASVKMSCKASGYTFTSYNMHWVKQTPGRGLEWIGAIYPGNGDTSYNQKFKGKATLTADKSSSTAYMQLSSLTSEDSAVYYCARSTYYGGDWYFNVWGAGTTVTVSSASTKGPSVFPLAPSSKSTSGGTAALGCLVKDYFPEPVTVSWNSGALTSGVHTFPAVLQSSGLYSLSSVVTVPSSSLGTQTYICNVNHKPSNTKVDKKVEPKSCDKTHTCPPCPAPEKERGPSVFLFPPKPKDTLMISRTPEVTCVVVDVSHEDPEVKFNWYVDGVEVHNAKTKPREEQYNSTYRVVSVLTVLHQDWLNGKEYKCKVSNKALPAPIEKTISKAKGQPREPQVYTLPPSRDELTKNQVSLTCLVKGFYPSDIAVEWESNGQPENNYKTTPPVLDSDGSFFLYSKLTVDKSRWQQGNVFSCSVMHEALHNHYTQKSLSLSPGK
light: QIVLSQSPAILSASPGEKVTMTCRASSSVSYIHWFQQKPGSSPKPWIYATSNLASGVPVRFSGSGSGTSYSLTISRVEAEDAATYYCQQWTSNPPTFGGGTKLEIKRTVAAPSVFIFPPSDEQLKSGTASVVCLLNNFYPREAKVQWKVDNALQSGNSQESVTEQDSKDSTYSLSSTLTLSKADYEKHKVYACEVTHQGLSSPVTKSFNRGEC
notes: also called 1-79; copies: 2 + 2
B2: anti-CD20 human IgG1 L234Q/L235M/G236R (antibody)
heavy: B1 heavy with K238Q, E239M
light: B1 light
notes: also called 1-115; copies: 2 + 2
B3: anti-CD20 human IgG1 L234Q/L235N/G236R (antibody)
heavy: B1 heavy with K238Q, E239N
light: B1 light
notes: copies: 2 + 2
B4: anti-CD20 human IgG1 L234N/L235K/G236R (antibody)
heavy: B1 heavy with K238N, E239K
light: B1 light
notes: also called 1-98; copies: 2 + 2
B5: anti-CD20 human IgG1 L234K/L235Q/G236R (antibody)
heavy: B1 heavy with E239Q
light: B1 light
notes: also called 1-87; 2-22; copies: 2 + 2
B6: anti-CD20 human IgG1 L234N/L235D/G236R (antibody)
heavy: B1 heavy with K238N, E239D
light: B1 light
notes: also called 1-93; copies: 2 + 2
B7: anti-CD20 human IgG1 L234Q/L235I/G236R (antibody)
heavy: B1 heavy with K238Q, E239I
light: B1 light
notes: copies: 2 + 2
B8: anti-CD20 human IgG1 L234K/L235I/G236R (antibody)
heavy: B1 heavy with E239I
light: B1 light
notes: also called 1-82; copies: 2 + 2
B9: anti-CD20 human IgG1 L234N/L235I/G236R (antibody)
heavy: B1 heavy with K238N, E239I
light: B1 light
notes: also called 1-97; copies: 2 + 2
B10: anti-CD20 human IgG1 L234Q/L235Q/G236R (antibody)
heavy: B1 heavy with K238Q, E239Q
light: B1 light
notes: also called 2-31; copies: 2 + 2
B11: anti-CD20 human IgG1 L234Q/L235H/G236R (antibody)
heavy: B1 heavy with K238Q, E239H
light: B1 light
notes: also called 2-29; copies: 2 + 2
B12: anti-CD20 human IgG1 L234K/L235K/G236R (antibody)
heavy: B1 heavy with E239K
light: B1 light
notes: also called 1-83; copies: 2 + 2
B13: anti-CD20 human IgG1 L234N/L235G/G236R (antibody)
heavy: B1 heavy with K238N, E239G
light: B1 light
notes: also called 1-95; copies: 2 + 2
B14: anti-CD20 human IgG1 L234N/L235A/G236R (antibody)
heavy: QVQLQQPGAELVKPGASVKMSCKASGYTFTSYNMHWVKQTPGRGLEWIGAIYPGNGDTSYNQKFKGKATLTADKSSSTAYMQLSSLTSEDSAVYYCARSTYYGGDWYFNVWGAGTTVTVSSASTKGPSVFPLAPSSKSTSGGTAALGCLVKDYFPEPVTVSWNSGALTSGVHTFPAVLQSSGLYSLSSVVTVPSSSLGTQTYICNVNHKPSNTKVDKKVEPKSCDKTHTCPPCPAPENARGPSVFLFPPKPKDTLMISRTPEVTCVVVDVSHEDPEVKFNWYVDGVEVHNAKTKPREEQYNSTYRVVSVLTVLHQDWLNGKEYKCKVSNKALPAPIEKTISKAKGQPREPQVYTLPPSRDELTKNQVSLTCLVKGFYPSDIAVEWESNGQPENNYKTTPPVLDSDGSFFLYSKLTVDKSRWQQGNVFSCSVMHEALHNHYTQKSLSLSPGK
light: B1 light
notes: also called 1-92; copies: 2 + 2
B15: anti-CD20 human IgG1 L234N/L235T/G236R (antibody)
heavy: B1 heavy with K238N, E239T
light: B1 light
notes: copies: 2 + 2
B16: anti-CD20 human IgG1 L234R/L235G/G236R (antibody)
heavy: B1 heavy with K238R, E239G
light: B1 light
notes: copies: 2 + 2
B17: anti-CD20 human IgG1 L234N/L235V/G236R (antibody)
heavy: B1 heavy with K238N, E239V
light: B1 light
notes: copies: 2 + 2
B18: anti-CD20 human IgG1 L234N/L235E/G236R (antibody)
heavy: B1 heavy with K238N
light: B1 light
notes: also called 1-94; copies: 2 + 2
B19: anti-CD20 human IgG1 L234R/L235Q/G236R (antibody)
heavy: B1 heavy with K238R, E239Q
light: B1 light
notes: also called 2-42; copies: 2 + 2
B20: anti-CD20 human IgG1 L234K/L235H/G236R (antibody)
heavy: B1 heavy with E239H
light: B1 light
notes: also called 1-81; copies: 2 + 2
B21: anti-CD20 human IgG1 L234Q/L235E/G236R (antibody)
heavy: B1 heavy with K238Q
light: B1 light
notes: copies: 2 + 2
B22: anti-CD20 human IgG1 L234K/L235G/G236R (antibody)
heavy: B1 heavy with E239G
light: B1 light
notes: also called 1-80; copies: 2 + 2
B23: anti-CD20 human IgG1 L234N/L235S/G236R (antibody)
heavy: B1 heavy with K238N, E239S
light: B1 light
notes: copies: 2 + 2
B24: anti-CD20 human IgG1 L234Q/L235G/G236R (antibody)
heavy: B1 heavy with K238Q, E239G
light: B1 light
notes: also called 1-110; copies: 2 + 2
B25: anti-CD20 human IgG1 L234K/L235N/G236R (antibody)
heavy: B1 heavy with E239N
light: B1 light
notes: also called 1-86; copies: 2 + 2
B26: anti-CD20 human IgG1 L234N/L235N/G236R (antibody)
heavy: B1 heavy with K238N, E239N
light: B1 light
notes: copies: 2 + 2
B27: anti-CD20 human IgG1 L234N/L235R/G236R (antibody)
heavy: B1 heavy with K238N, E239R
light: B1 light
notes: copies: 2 + 2
B28: anti-CD20 human IgG1 L234R/G236R (antibody)
heavy: not shown
light: B1 light
notes: also called 2-41; copies: 2 + 2
B29: anti-CD20 human IgG1 L234N/L235Q/G236R (antibody)
heavy: B1 heavy with K238N, E239Q
light: B1 light
notes: copies: 2 + 2
B30: anti-CD20 human IgG1 L234N/L235H/G236R (antibody)
heavy: B1 heavy with K238N, E239H
light: B1 light
notes: also called 1-96; copies: 2 + 2
B31: anti-CD20 human IgG1 L234R/L235A/G236R (antibody)
heavy: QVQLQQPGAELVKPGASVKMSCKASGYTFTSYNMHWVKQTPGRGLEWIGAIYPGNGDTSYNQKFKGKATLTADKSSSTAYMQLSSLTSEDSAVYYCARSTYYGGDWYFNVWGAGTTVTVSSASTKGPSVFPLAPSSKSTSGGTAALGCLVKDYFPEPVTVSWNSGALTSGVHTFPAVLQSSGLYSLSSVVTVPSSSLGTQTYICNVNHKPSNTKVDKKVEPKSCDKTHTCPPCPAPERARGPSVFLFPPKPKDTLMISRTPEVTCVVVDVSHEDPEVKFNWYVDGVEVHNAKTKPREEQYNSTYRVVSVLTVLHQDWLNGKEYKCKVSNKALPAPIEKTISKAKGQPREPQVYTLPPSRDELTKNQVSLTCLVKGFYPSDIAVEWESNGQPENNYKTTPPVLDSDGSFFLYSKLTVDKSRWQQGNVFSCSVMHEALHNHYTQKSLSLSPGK
light: B1 light
notes: copies: 2 + 2
B32: anti-CD20 human IgG1 L234Q/L235V/G236R (antibody)
heavy: B1 heavy with K238Q, E239V
light: B1 light
notes: copies: 2 + 2
B33: anti-CD20 human IgG1 L234R/L235E/G236R (antibody)
heavy: B1 heavy with K238R
light: B1 light
notes: also called 2-37; copies: 2 + 2
B34: anti-CD20 human IgG1 L234Q/L235K/G236R (antibody)
heavy: B1 heavy with K238Q, E239K
light: B1 light
notes: copies: 2 + 2
B35: anti-CD20 human IgG1 L234R/L235N/G236R (antibody)
heavy: B1 heavy with K238R, E239N
light: B1 light
notes: copies: 2 + 2
B36: anti-CD20 human IgG1 L234R/L235S/G236R (antibody)
heavy: B1 heavy with K238R, E239S
light: B1 light
notes: copies: 2 + 2
B37: anti-CD20 human IgG1 L234K/L235M/G236R (antibody)
heavy: B1 heavy with E239M
light: B1 light
notes: also called 1-85; copies: 2 + 2
B38: anti-CD20 human IgG1 L234N/G236R (antibody)
heavy: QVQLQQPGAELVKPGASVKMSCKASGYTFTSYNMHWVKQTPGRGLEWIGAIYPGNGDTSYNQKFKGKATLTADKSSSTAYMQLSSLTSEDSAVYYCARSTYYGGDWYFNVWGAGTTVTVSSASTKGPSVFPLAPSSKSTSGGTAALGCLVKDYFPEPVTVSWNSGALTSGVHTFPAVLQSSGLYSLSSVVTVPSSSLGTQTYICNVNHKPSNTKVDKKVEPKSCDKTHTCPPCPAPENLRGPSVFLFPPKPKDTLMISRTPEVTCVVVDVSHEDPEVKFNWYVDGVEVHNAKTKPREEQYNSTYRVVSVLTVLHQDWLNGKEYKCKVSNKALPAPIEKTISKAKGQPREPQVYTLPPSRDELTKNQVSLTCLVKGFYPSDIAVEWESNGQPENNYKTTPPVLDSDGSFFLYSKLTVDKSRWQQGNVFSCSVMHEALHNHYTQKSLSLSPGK
light: B1 light
notes: also called 1-99; copies: 2 + 2

Molecular target: T1, Histidine-tagged recombinant human FcγRI (CD64) (human, UniProt P12314 16-288)
T1 construct: bought; also called Sino Biological Cat. No. 12056-H08H
Test: SPR, culture supernatant, captured His-FcγRI;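 note: biacore T200 SPR at 25 °C, anti-His capture, supernatants of HEK293 cells expressing IgG1 Fc variants injected 1 min, reference-subtracted response read 55 s after injection start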
Procedure: Binding analysis was carried out by surface plasmon resonance at 25° C. using a Biacore® T200 instrument with Biacore® T200 control software. The running buffer (HBS-EP+) consisted of 0.01 M HEPES pH 7.4, containing 0.15 M NaCl, 3 mM EDTA, and 0.05% v/v Surfactant P20. The sample compartment was held at 4° C. during analysis.
The cell was activated by treatment with EDC/NHS for 7 min. The antibody was diluted to 5 μg/mL in 10 mM sodium acetate pH 4.5 and injected for 7 min at 5 μL/min. The flow cell was deactivated by injection of 1M ethanolamine for 7 min. This process was repeated in the absence of anti-his antibody on a separate flow cell to generate a reference surface. […] Samples of undiluted culture supernatants from HEK293 cells expressing human IgG1 antibodies comprising variant Fc regions were injected for 1 min at 30 μL/min and allowed to disassociate for 2 min. […] Therefore, regeneration between cycles was not necessary. Responses on the test flow cell (coupled with anti-His antibody) were analysed after subtraction of responses on the control flow cell (sham-coupled). The relative binding response was measured 55 sec after the beginning of sample injection. To account for any possible drift in response due to slow dissociation of the His-tagged FcγRI, the binding response was measured relative to a baseline interpolated between report points located before sample injection and at the end of dissociation.
The whole experiment was repeated three times. Due to the relatively crude nature of the samples (variable refractive index, presence of culture media and other cellular products), some sensorgrams were unsatisfactory and were eliminated from analysis. The mean and standard deviation of binding response was then calculated for each sample.

| Binder | Mean binding response [RU] |
| --- | --- |
| B1 | 29.9 |
| B2 | 38.4 |
| B3 | 26.8 |
| B4 | 25 |
| B5 | 8.4 |
| B6 | 13.4 |
| B7 | 34.7 |
| B8 | 30.9 |
| B9 | 14.1 |
| B10 | 16.8 |
| B11 | 10 |
| B12 | 37.6 |
| B13 | 22.1 |
| B14 | 22.3 |
| B15 | 8.6 |
| B16 | 31.9 |
| B17 | 18.9 |
| B18 | 16.4 |
| B19 | 10.1 |

| Binder | Mean binding response [RU] |
| --- | --- |
| B20 | 25.3 |
| B21 | 28.8 |
| B22 | 27.4 |
| B23 | 18.4 |
| B24 | 28.1 |
| B25 | 24.8 |
| B26 | 16.9 |
| B27 | 30.4 |
| B28 | 21.1 |
| B29 | 4.5 |
| B30 | 17.7 |
| B31 | 28.1 |
| B32 | 20.9 |
| B33 | 16.7 |
| B34 | 26.9 |
| B35 | 10.8 |
| B36 | 34 |
| B37 | 23.9 |
| B38 | 22.3 |

From patent publication US20230235013A1 (MABSOLVE, published 2023)
